Consider two compounds from PMC10537722, “Proline Dehydrogenase and Pyrroline 5 Carboxylate Dehydrogenase from Mycobacterium tuberculosis: Evidence for Substrate Channeling” (Pathogens, 2023).

The target in series [1] is T1, proline dehydrogenase (PruB) (Mycobacterium tuberculosis, UniProt O50444).
T1 construct: gene Rv1188
In words: […]; added FAD makes little difference to activity. In kind it is binding.

The subject of series [2] is CC(C)=CCC/C(C)=C/CC1=C(C)C(=O)c2ccccc2C1=O. In words: purified protein. The conditions noted are these: FAD; pH 7.0; 25.0 °C.
In series [3] the test system is CC1=C(CCC(C)C)C(=O)c2ccccc2C1=O. In words: purified protein. The conditions noted are these: FAD; pH 7.0; 25.0 °C.
For series [4], the system named is CC(C)=CCC1=C(C)C(=O)c2ccccc2C1=O. In words: purified protein. To be noted: FAD; pH 7.0; 25.0 °C.
For series [5], the system named is COC1=C(OC)C(=O)C(CC=C(C)C)=C(C)C1=O. In words: purified protein. To be noted: FAD; pH 7.0; 25.0 °C.
Series [6] deals with O=C(O)[C@@H]1CCCN1. In words: purified protein. To be noted: FAD; pH 7.0; 25.0 °C.

T1 sequence (O50444 1-329): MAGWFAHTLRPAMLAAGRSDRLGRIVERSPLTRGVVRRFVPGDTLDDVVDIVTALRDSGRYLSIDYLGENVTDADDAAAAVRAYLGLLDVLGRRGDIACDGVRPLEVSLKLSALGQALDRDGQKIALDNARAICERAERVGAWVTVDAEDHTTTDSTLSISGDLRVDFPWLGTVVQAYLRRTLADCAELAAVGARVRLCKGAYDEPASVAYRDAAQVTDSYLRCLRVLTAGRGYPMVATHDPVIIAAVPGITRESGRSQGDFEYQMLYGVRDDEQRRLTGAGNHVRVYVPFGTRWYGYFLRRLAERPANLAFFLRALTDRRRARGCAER

For `Cc1cc2nc3c(=O)[nH]c(=O)nc-3n(C[C@H](O)[C@H](O)[C@H](O)COP(=O)(O)OP(=O)(O)OC[C@H]3O[C@@H](n4cnc5c(N)ncnc54)[C@H](O)[C@@H]3O)c2cc1C` [FAD], the “co-purification with the enzyme (yellow protein); added FAD makes little differen” value in series [1] is given as “the addition of FAD to the assay buffer resulted in little difference in activity, confirming the copurification”.

One may read the Km as the substrate concentration at which the rate is half of its maximum. One may read the kcat as the maximal rate divided by the concentration of active sites. What is called kcat/Km is the second-order rate constant that governs catalysis at low substrate concentration. In the case of “proline dehydrogenase (PruB) (Mycobacterium tuberculosis H37Rv)”, the Michaelis-Menten constant (Km) in series [2] was found to be 12 ± 0.66 µM; in series [3], 46 ± 13 µM; in series [4] it was 23 ± 3.2 µM; in series [5], 9.7 ± 1.4 µM; in series [6] it was 2500 ± 300 µM. Moreover, the kcat in series [5] came to 2.3 s⁻¹; in series [6], 1.7 s⁻¹. For the same compound, the kcat/Km in series [5] was 230000 M⁻¹ s⁻¹; in series [6] it was 690 M⁻¹ s⁻¹.
